# Residue numbers refer to the chain shown, from its start.
# B1: MTK-228 (antibody, human IgG1, V domains shown)
# VH: QDQLQQSGPELVKPGASVKISCKASGYSFTSYYIHWVKQRPGQGLEWVGWIFPGNGNTKYNERFKGKATLTADTSSSTAYMQLSSLTSEDSAVYYCARLGLIYALDYWGQGTSVTVSS
# VL: DAVMTQTPLSLPVSLGDQASISCRSSQSLENSNGNTYLHWYLQKPGQSPQLLIYRVSNRFSGVLDRFSGSGSGTDFTLKISRVEAEDLGVYFCLQVTHVPFTFGSGTKLEIK
# B2: MTK-218 (antibody, human IgG1, V domains shown)
# VH: B1 VH with D2V, A16T, E46D, V48I, G56R, K59Q, R63K
# VL: B1 VL with N35H, L64Q
# B3: MTK-226 (antibody, human IgG1, V domains shown)
# VH: B1 VH with D2V, V48I, R63N, K65R
# VL: B1 VL with N31S, K79Q
# B4: MTK-213 (antibody, human IgG1, V domains shown)
# VH: QVQLQQPGAELVKPGASVKMSCKASGYTFTSYWITWVKQRPGQGHEWIGEIYPGIGSTNYNEKFKSKATLTVDTSSRTAYMQLSSLTSEDSAVYFCARGAYTKYYFDYWGQGTTLTVSS
# VL: DIVMTQSHKFMSTSVGDRVSITCKASQDVGDAVAWYQQKPGQTPKLLIYWASTRHTGVPDRFTGSGSGTDFTLTISNVQSEDLADYFCQQYSSYLMYTFGGGTKLEIK
# B5: MTK-210 (antibody, human IgG1, V domains shown)
# VH: QVQLQQSGPELVKPGASVKISCKASDYEFSRSWMNWVKQRPGKGLEWIGRIYPGDGDTNYNGKFKGKATLTADKSSNTAYMQLNSLTSEDSAVYFCARKGGYYYSISNYFDYWGQGTTLTVSS
# VL: QIVLTQSPAIMSASPGVKVTMTCSASSSVSYMHWYQQKPGSSPRLLIYDTSNLASGVPVRFSGSGSGTSYSLTISRMEAEDAATYYCQQWSSYPPYTFGGGTKLEIK
# B6: MTK-206 (antibody, human IgG1, V domains shown)
# VH: QVQLQQSGAELARPGASVKMSCKASGYTFTSYTMHWVKQRPGQGLEWIGYINPSSGYIKNSQKFKDKATLTADKSSSTAYMQLSSLTSEDSAVYYCARTVYGYYGSSPDYWGQGTTLTVSS
# VL: DIQMTQSPSSLSASLGERVSLTCRASQDIGSNLNWLQQEPDGTIKRLIYATSSLESGVPKRFSGSRSGSDYSLTISSLESEDFVDYYCLQYDSSPWTFGGGTKLEIK
# B7: MTK-214 (antibody, human IgG1, V domains shown)
# VH: QVQLQQPGAELVKPGASVKVSCKASGYTFTNYWMHWMKQRPGQGLEWIGRIHPFDSDTNYNEKFTDKATLTVDKSSSTAYMQLSSLTSEDSAVYYCAIGTLIYWGQGTTLTASS
# VL: DILLTQSPATLSVTPGETVSLSCRASQSIYKKLHWFQQRSHRSPRLLIKFASDSISGIPSRFTGSGSGTDYTLSINSVKPEDEAIYYCLQGYSTPLTFGAGTKLELK
# B8: MTK-224 (antibody, human IgG1, V domains shown)
# VH: QVQLQQPGAELVKPGASVKVSCKASGYTFTSYWMHWVKQRPGQGLEWIGRIHPFDSDTNYNQKFKGKATLTVDKSSSTAYMQLSSLTSEDSAVYYCSIAGFAYWGQGTLVTVSA
# VL: DIVMTQSPATLSVTPGDRVSLSCRASQIISDYLNWYQQKSHESPRLLIKYASQSISGIPSRFSGSGSGSDFTLSINSVEPEDVGVYYCQNGHSFPLTFGAGTKLELK
# B9: MTK-219 (antibody, human IgG1, V domains shown)
# VH: QVQLQQSGADLMKPGASVKLSCKATGNTFTGYWIEWVKQRPGHGLEWIGEILTGSGSTNYNERFKGKATFTADTSSNTAYMQLSSLTTEDSAIYYCAGSYFTNSWFPYWGQGSLVTVSA
# VL: DIVLTQSPASLAVSLGQRATISCRASESVDSYGNSFMHWYQQKPGQPPKLLIYRAYTLESGIPARFSGSGSRTDFTLTINPVEADDVATYYCQQSNEDPRTFGGGTKLEIK
# B10: MTK-222 (antibody, human IgG1, V domains shown)
# VH: B9 VH with N27Y, T58S, R63K, T74S, Y80F, F101Y, T102S
# VL: B9 VL with A9V, N34S, Y56S, T57S, A84T
# Biological target: T1, recombinant murine MerTK extracellular domain (mouse, UniProt Q60805 19-497)
# T1 construct: also called Mouse MerTK; murine MerTK ECD; not shown: polyHis or TEVS/Thrombin/murine IgG2a-Fc tag
# T1 sequence: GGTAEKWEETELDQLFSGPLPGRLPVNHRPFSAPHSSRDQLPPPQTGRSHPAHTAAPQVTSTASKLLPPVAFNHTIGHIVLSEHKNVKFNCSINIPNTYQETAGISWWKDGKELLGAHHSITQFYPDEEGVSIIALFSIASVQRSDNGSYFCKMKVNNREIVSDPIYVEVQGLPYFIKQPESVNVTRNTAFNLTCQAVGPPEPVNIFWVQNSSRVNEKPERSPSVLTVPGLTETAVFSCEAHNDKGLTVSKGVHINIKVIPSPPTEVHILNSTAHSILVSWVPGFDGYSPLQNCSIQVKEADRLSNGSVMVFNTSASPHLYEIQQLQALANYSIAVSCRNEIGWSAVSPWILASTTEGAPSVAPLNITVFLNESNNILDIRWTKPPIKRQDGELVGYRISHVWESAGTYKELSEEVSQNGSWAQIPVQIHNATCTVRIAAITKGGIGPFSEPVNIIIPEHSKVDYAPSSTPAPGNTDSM
# Experiment: SPR Carterra LSA, Ab immobilised
# Procedure, shortened: (§1)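 Surface plasmon resonance on a Carterra LSA measured affinity of immobilized antibodies for human, cynomolgus or mouse MerTK ectodomain diluted in HBS-TE with 0.5 mg/ml BSA. Analytes flowed over the full array, surfaces were regenerated with Protein A/G Elution Buffer plus 1M NaCl or 10 mM Glycine pH 2.5, and spots binding under 25 RU were discarded before kinetic fitting.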
Binder,Kd [nM],binding result
B1,1.7,
B2,6.2,
B3,1.8,
B4,4.8,
B5,,no binding (tested: analyte up to 600 nM)
B6,,no binding (tested: analyte up to 600 nM)
B7,320,
B8,430,

# Biological target: T2, recombinant cynomolgus MerTK extracellular domain (cynomolgus, UniProt Q12866 21-505 (human entry))
# T2 construct: also called cyno MerTK ECD; not shown: polyHis or TEVS/Thrombin/murine IgG2a-Fc tag
# T2 chain: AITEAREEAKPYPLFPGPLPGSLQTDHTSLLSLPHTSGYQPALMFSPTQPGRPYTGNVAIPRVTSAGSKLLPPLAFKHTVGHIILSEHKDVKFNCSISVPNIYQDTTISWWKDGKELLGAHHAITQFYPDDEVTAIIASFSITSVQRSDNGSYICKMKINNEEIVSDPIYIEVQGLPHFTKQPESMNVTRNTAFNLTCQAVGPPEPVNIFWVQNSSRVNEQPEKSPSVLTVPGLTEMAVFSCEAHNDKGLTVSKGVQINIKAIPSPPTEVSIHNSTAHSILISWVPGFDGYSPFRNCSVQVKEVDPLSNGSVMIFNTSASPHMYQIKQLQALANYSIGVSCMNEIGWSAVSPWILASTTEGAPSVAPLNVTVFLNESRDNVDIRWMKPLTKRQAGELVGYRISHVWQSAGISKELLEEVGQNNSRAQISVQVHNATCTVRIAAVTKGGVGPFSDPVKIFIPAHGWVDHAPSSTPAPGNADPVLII
# Experiment: SPR Carterra LSA, Ab immobilised
# Procedure, shortened: as §1
row,Binder,Kd [nM]
1,B1,46
2,B2,85
3,B3,47
4,B4,60
5,B9,830
6,B10,130
7,B5,37
8,B6,3700

# Biological target: T3, MerTK N-terminal ECD Half-and-half chimera (human)
# T3 construct: tested as culture supernatant; also called MerTK N-term half-and-half chimera; MerTK N-terminal ECD (NT-Ig1-Ig2) + Axl C-terminal ECD (FN1-FN2-JM)
# T3 chain: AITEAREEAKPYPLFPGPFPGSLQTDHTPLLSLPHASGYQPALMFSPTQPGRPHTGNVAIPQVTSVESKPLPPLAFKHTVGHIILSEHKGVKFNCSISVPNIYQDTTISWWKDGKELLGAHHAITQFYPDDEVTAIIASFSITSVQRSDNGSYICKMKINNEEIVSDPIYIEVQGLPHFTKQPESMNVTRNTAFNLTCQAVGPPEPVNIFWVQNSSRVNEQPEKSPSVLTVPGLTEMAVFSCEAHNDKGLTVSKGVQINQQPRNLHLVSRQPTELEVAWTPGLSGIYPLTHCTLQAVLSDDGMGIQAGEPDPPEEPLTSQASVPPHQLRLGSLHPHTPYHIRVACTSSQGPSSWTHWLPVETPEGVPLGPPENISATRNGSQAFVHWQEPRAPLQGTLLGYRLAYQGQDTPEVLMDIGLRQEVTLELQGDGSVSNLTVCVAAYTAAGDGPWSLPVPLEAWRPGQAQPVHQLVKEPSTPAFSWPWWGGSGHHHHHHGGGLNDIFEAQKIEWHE
# Experiment: SPR, construct supernatant over immobilised Ab
# Description: Binding of anti-MerTK antibodies of the present disclosure to these domain-swapped chimera or deletion mutants was tested by Surface Plasmon Resonance (SPR) using Carterra LSA. Purified anti-MerTK antibodies were immobilized in duplicate on a HC30M chip (Carterra) by amine coupling, following the manufacturer's instructions (described previously).
# Supernatants containing the constructs were diluted 1:1 with running buffer containing 0.5 mg/mL BSA (HBS-TE, Carterra; BSA, Sigma) and injected over the immobilized antibodies. The surface was regenerated with 10 mM Glycine pH2.0 after each construct injection. Sensorgrams were analyzed using Carterra Epitope software to identify patterns of construct binding. Loss of binding to MerTK constructs with domains deleted or swapped in from Axl and/or gain of binding to Axl constructs with MerTK domains swapped in were evaluated. Data from these studies were used to construct a domain binding map for anti-MerTK antibodies and their binding to various domains of human MerTK.
row,Binder,binding result
1,B9,no binding
2,B10,no binding
3,B5,no binding
4,B6,no binding
5,B7,no binding
6,B8,no binding

# Biological target: T1, recombinant murine MerTK extracellular …
# Experiment: SPR Carterra LSA
# Description: (§2) Binding kinetics of anti-MerTK IgG1 antibodies of the present disclosure to human, cyno, and murine MerTK were evaluated using a Carterra LSA instrument (Carterra, Salt Lake City, UT). […] A HC200M sensor chip (Carterra) was activated using the single channel flow cell with a 7-minute injection of a 1:1:1 mixture of 100 mM MES pH 5.5, 100 mM sulfo-NHS, 400 mM EDC (all reconstituted in MES pH 5.5; 100 μl of each mixed in vial immediately before running assay). After switching to the multi-channel array flow cell, the antibodies were injected over the activated chip in three 96-spot arrays for 10 minutes each. The remaining unconjugated active groups on the chip were then blocked by injecting 1M Ethanolamine pH 8.5 (Carterra) for 7 minutes using the single channel flow cell. The resulting sensor chip contained three spots for each antibody, at three different densities. Two independent experiments were performed as follows, resulting in an N of between one and six determinations for each antibody. Spots that yielded less than 25 RU of analyte binding were excluded from further analysis.
# (§3) After priming with running buffer (HBS-TE, Carterra) with 0.5 mg/ml BSA (Sigma), the immobilized anti-MerTK antibodies were tested for their ability to bind to several forms of recombinant MerTK extracellular domain, including human, cynomolgus, and mouse orthologs as described above. Estimates of affinity were generated by injecting each analyte over the entire antibody array using the single channel flow cell. MerTK analytes were diluted with running buffer, in a series of six, three-fold serial dilutions starting from 1 μM for human and cynomolgus MerTK, and 600 nM for mouse MerTK. Analytes were injected for 5 minutes, and dissociation was followed for 10 minutes. After each analyte injection, antibodies were regenerated with either Protein A/G Elution Buffer (Thermo) with 1M NaCl (Teknova), or with 10 mM Glycine pH 2.5. Three buffer blanks were run between each series (one species per series). Data were processed and analyzed using NextGenKIT high-throughput kinetics analysis software (Carterra).
row,Binder,Ratio of KD for Mouse vs Human MerTK [ratio]
1,B1,0.04
2,B2,0.1
3,B3,0.05
4,B4,0.08
5,B7,32
6,B8,64.2

# Biological target: T2, recombinant cynomolgus MerTK …
# Experiment: SPR Carterra LSA
# Description: as §2, §3
row,Binder,Ratio of KD for Cynomolgus vs Human MerTK [ratio]
1,B1,1.1
2,B2,1.3
3,B3,1.2
4,B4,0.9
5,B9,1.9
6,B10,1
7,B5,1.2
8,B6,24.7
